Experimental data reported in patent publication US20140087995A1 (published 2014).
Numbered stars: 1 amine (or outer) side, 2 acyl side, 3 side chain; on linkers, the order of the positions; unused ones are H or OH. Bridge positions count the residues as written; N and C are the ends. * marks the point of attachment. C20 diacid = O=C(O)CCCCCCCCCCCCCCCCCCC(=O)*; γGlu = O=C(O)[C@H](CCC(=O)[*:2])N[*:1]

T1: human calcitonin receptor (human, UniProt P30988 25-474)
T1 construct: whole, on cells; also called hCTR; hCT
T1 sequence (looked up): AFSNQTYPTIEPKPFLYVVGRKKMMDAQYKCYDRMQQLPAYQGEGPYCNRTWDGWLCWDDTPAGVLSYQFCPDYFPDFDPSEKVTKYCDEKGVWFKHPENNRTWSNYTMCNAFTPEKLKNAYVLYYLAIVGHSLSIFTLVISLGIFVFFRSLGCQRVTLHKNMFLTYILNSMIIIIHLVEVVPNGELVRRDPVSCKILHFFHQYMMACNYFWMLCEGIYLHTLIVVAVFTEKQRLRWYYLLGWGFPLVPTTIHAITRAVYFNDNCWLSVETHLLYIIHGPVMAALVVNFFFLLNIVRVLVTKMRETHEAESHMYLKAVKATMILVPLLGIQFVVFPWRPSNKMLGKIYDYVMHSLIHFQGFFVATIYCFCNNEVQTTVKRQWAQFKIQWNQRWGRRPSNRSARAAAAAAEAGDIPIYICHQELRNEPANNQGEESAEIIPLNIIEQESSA

B1: N^α1-[(4S)-4-carboxy-4-(19-carboxynonadecanoylamino)butanoyl]-[Glu14,Arg17,Pro21,Pro27,Asp35,Pro37]-h-amylin (peptide)
peptide: {C20 diacid-γGlu}-KCNTATCATQRLAEFLRHSSPNFGAIPSSTNVGSDTP-NH2
modifications: disulfide 2-7
SMILES: CC[C@H](C)[C@H](NC(=O)[C@H](C)NC(=O)CNC(=O)[C@H](Cc1ccccc1)NC(=O)[C@H](CC(N)=O)NC(=O)[C@@H]1CCCN1C(=O)[C@H](CO)NC(=O)[C@H](CO)NC(=O)[C@H](Cc1c[nH]cn1)NC(=O)[C@H](CCCNC(=N)N)NC(=O)[C@H](CC(C)C)NC(=O)[C@H](Cc1ccccc1)NC(=O)[C@H](CCC(=O)O)NC(=O)[C@H](C)NC(=O)[C@H](CC(C)C)NC(=O)[C@H](CCCNC(=N)N)NC(=O)[C@H](CCC(N)=O)NC(=O)[C@@H](NC(=O)[C@H](C)NC(=O)[C@@H]1CSSC[C@H](NC(=O)[C@H](CCCCN)NC(=O)CC[C@H](NC(=O)CCCCCCCCCCCCCCCCCCC(=O)O)C(=O)O)C(=O)N[C@@H](CC(N)=O)C(=O)N[C@@H]([C@@H](C)O)C(=O)N[C@@H](C)C(=O)N[C@@H]([C@@H](C)O)C(=O)N1)[C@@H](C)O)C(=O)N1CCC[C@H]1C(=O)N[C@@H](CO)C(=O)N[C@@H](CO)C(=O)N[C@H](C(=O)N[C@@H](CC(N)=O)C(=O)N[C@H](C(=O)NCC(=O)N[C@@H](CO)C(=O)N[C@@H](CC(=O)O)C(=O)N[C@H](C(=O)N1CCC[C@H]1C(N)=O)[C@@H](C)O)C(C)C)[C@@H](C)O
notes: also called compound 11
B2: N^α1-[(4S)-4-carboxy-4-(19-carboxynonadecanoylamino)butanoyl]-[Glu14,Arg17,Pro21,Pro27,Pro37]-h-amylin (peptide)
peptide: {C20 diacid-γGlu}-KCNTATCATQRLAEFLRHSSPNFGAIPSSTNVGSNTP-NH2
modifications: disulfide 2-7
SMILES: CC[C@H](C)[C@H](NC(=O)[C@H](C)NC(=O)CNC(=O)[C@H](Cc1ccccc1)NC(=O)[C@H](CC(N)=O)NC(=O)[C@@H]1CCCN1C(=O)[C@H](CO)NC(=O)[C@H](CO)NC(=O)[C@H](Cc1c[nH]cn1)NC(=O)[C@H](CCCNC(=N)N)NC(=O)[C@H](CC(C)C)NC(=O)[C@H](Cc1ccccc1)NC(=O)[C@H](CCC(=O)O)NC(=O)[C@H](C)NC(=O)[C@H](CC(C)C)NC(=O)[C@H](CCCNC(=N)N)NC(=O)[C@H](CCC(N)=O)NC(=O)[C@@H](NC(=O)[C@H](C)NC(=O)[C@@H]1CSSC[C@H](NC(=O)[C@H](CCCCN)NC(=O)CC[C@H](NC(=O)CCCCCCCCCCCCCCCCCCC(=O)O)C(=O)O)C(=O)N[C@@H](CC(N)=O)C(=O)N[C@@H]([C@@H](C)O)C(=O)N[C@@H](C)C(=O)N[C@@H]([C@@H](C)O)C(=O)N1)[C@@H](C)O)C(=O)N1CCC[C@H]1C(=O)N[C@@H](CO)C(=O)N[C@@H](CO)C(=O)N[C@H](C(=O)N[C@@H](CC(N)=O)C(=O)N[C@H](C(=O)NCC(=O)N[C@@H](CO)C(=O)N[C@@H](CC(N)=O)C(=O)N[C@H](C(=O)N1CCC[C@H]1C(N)=O)[C@@H](C)O)C(C)C)[C@@H](C)O
notes: also called compound 8
B3: N^α1-[(4S)-4-carboxy-4-(19-carboxynonadecanoylamino)butanoyl]-[Glu14,Arg17,Pro21,Pro27,Pro29]-h-amylin (peptide)
peptide: {C20 diacid-γGlu}-KCNTATCATQRLAEFLRHSSPNFGAIPSPTNVGSNTY-NH2
modifications: disulfide 2-7
SMILES: CC[C@H](C)[C@H](NC(=O)[C@H](C)NC(=O)CNC(=O)[C@H](Cc1ccccc1)NC(=O)[C@H](CC(N)=O)NC(=O)[C@@H]1CCCN1C(=O)[C@H](CO)NC(=O)[C@H](CO)NC(=O)[C@H](Cc1c[nH]cn1)NC(=O)[C@H](CCCNC(=N)N)NC(=O)[C@H](CC(C)C)NC(=O)[C@H](Cc1ccccc1)NC(=O)[C@H](CCC(=O)O)NC(=O)[C@H](C)NC(=O)[C@H](CC(C)C)NC(=O)[C@H](CCCNC(=N)N)NC(=O)[C@H](CCC(N)=O)NC(=O)[C@@H](NC(=O)[C@H](C)NC(=O)[C@@H]1CSSC[C@H](NC(=O)[C@H](CCCCN)NC(=O)CC[C@H](NC(=O)CCCCCCCCCCCCCCCCCCC(=O)O)C(=O)O)C(=O)N[C@@H](CC(N)=O)C(=O)N[C@@H]([C@@H](C)O)C(=O)N[C@@H](C)C(=O)N[C@@H]([C@@H](C)O)C(=O)N1)[C@@H](C)O)C(=O)N1CCC[C@H]1C(=O)N[C@@H](CO)C(=O)N1CCC[C@H]1C(=O)N[C@H](C(=O)N[C@@H](CC(N)=O)C(=O)N[C@H](C(=O)NCC(=O)N[C@@H](CO)C(=O)N[C@@H](CC(N)=O)C(=O)N[C@H](C(=O)N[C@@H](Cc1ccc(O)cc1)C(N)=O)[C@@H](C)O)C(C)C)[C@@H](C)O
notes: also called compound 37
B4: N^α1-[(4S)-4-carboxy-4-(19-carboxynonadecanoylamino)butanoyl]-[Glu14,Arg17,Pro21,Pro27,His35]-h-amylin (peptide)
peptide: {C20 diacid-γGlu}-KCNTATCATQRLAEFLRHSSPNFGAIPSSTNVGSHTY-NH2
modifications: disulfide 2-7
SMILES: CC[C@H](C)[C@H](NC(=O)[C@H](C)NC(=O)CNC(=O)[C@H](Cc1ccccc1)NC(=O)[C@H](CC(N)=O)NC(=O)[C@@H]1CCCN1C(=O)[C@H](CO)NC(=O)[C@H](CO)NC(=O)[C@H](Cc1c[nH]cn1)NC(=O)[C@H](CCCNC(=N)N)NC(=O)[C@H](CC(C)C)NC(=O)[C@H](Cc1ccccc1)NC(=O)[C@H](CCC(=O)O)NC(=O)[C@H](C)NC(=O)[C@H](CC(C)C)NC(=O)[C@H](CCCNC(=N)N)NC(=O)[C@H](CCC(N)=O)NC(=O)[C@@H](NC(=O)[C@H](C)NC(=O)[C@@H]1CSSC[C@H](NC(=O)[C@H](CCCCN)NC(=O)CC[C@H](NC(=O)CCCCCCCCCCCCCCCCCCC(=O)O)C(=O)O)C(=O)N[C@@H](CC(N)=O)C(=O)N[C@@H]([C@@H](C)O)C(=O)N[C@@H](C)C(=O)N[C@@H]([C@@H](C)O)C(=O)N1)[C@@H](C)O)C(=O)N1CCC[C@H]1C(=O)N[C@@H](CO)C(=O)N[C@@H](CO)C(=O)N[C@H](C(=O)N[C@@H](CC(N)=O)C(=O)N[C@H](C(=O)NCC(=O)N[C@@H](CO)C(=O)N[C@@H](Cc1c[nH]cn1)C(=O)N[C@H](C(=O)N[C@@H](Cc1ccc(O)cc1)C(N)=O)[C@@H](C)O)C(C)C)[C@@H](C)O
notes: also called compound 18
B5: N^α1-[(4S)-4-carboxy-4-(19-carboxynonadecanoylamino)butanoyl]-[Glu14,Arg17,Pro21,Pro27,Pro31]-h-amylin (peptide)
peptide: {C20 diacid-γGlu}-KCNTATCATQRLAEFLRHSSPNFGAIPSSTPVGSNTY-NH2
modifications: disulfide 2-7
SMILES: CC[C@H](C)[C@H](NC(=O)[C@H](C)NC(=O)CNC(=O)[C@H](Cc1ccccc1)NC(=O)[C@H](CC(N)=O)NC(=O)[C@@H]1CCCN1C(=O)[C@H](CO)NC(=O)[C@H](CO)NC(=O)[C@H](Cc1c[nH]cn1)NC(=O)[C@H](CCCNC(=N)N)NC(=O)[C@H](CC(C)C)NC(=O)[C@H](Cc1ccccc1)NC(=O)[C@H](CCC(=O)O)NC(=O)[C@H](C)NC(=O)[C@H](CC(C)C)NC(=O)[C@H](CCCNC(=N)N)NC(=O)[C@H](CCC(N)=O)NC(=O)[C@@H](NC(=O)[C@H](C)NC(=O)[C@@H]1CSSC[C@H](NC(=O)[C@H](CCCCN)NC(=O)CC[C@H](NC(=O)CCCCCCCCCCCCCCCCCCC(=O)O)C(=O)O)C(=O)N[C@@H](CC(N)=O)C(=O)N[C@@H]([C@@H](C)O)C(=O)N[C@@H](C)C(=O)N[C@@H]([C@@H](C)O)C(=O)N1)[C@@H](C)O)C(=O)N1CCC[C@H]1C(=O)N[C@@H](CO)C(=O)N[C@@H](CO)C(=O)N[C@H](C(=O)N1CCC[C@H]1C(=O)N[C@H](C(=O)NCC(=O)N[C@@H](CO)C(=O)N[C@@H](CC(N)=O)C(=O)N[C@H](C(=O)N[C@@H](Cc1ccc(O)cc1)C(N)=O)[C@@H](C)O)C(C)C)[C@@H](C)O
notes: also called compound 31

The binders below were run against T1, human calcitonin receptor (assay: ratio of IC50 at hCTR to IC50 at the human amylin receptor (reference)).
Method: The resulting pellet was resuspended, homogenized and centrifuged (20.000 rpm, 15 min) in a buffer containing 20 mM Na-HEPES and 0.1 mM EDTA (pH 7.4, buffer 2). The resulting pellet was resuspended in buffer 2 and protein concentration was measured (BCA protein Assay, Pierce). The homogenate was kept cold during the whole procedure. The membranes were kept at −80° C. until use. The assay was performed in a 384 well Optiplate (PerkinElmer) in a total volume of 40 ul. Membranes were mixed with SPA beads. Final concentration of membranes 35 ng/μL final and SPA beads was 0.05 mg/well. Test-compounds were dissolved in DMSO and further diluted in assay buffer (50 mM Hepes, pH 7.4, 1 mM CaCl2, 5 mM MgCl₂, 0.1% OA and 0.02% Tween20). […] The final mixture was incubated with shaking at 400 rpm for 120 min at 25° C. prior to centrifugation (1500 rpm, 10 min). Samples were analyzed on TopCounter™ (Packard). The IC₅₀ was calculated using (one site binding competition analysis) GraphPad Prism5 as a measure of receptor affinity.
Membranes were prepared in the following way; the cells were rinsed with PBS and incubated with Versene for approximately 5 min before harvesting. The cells were flushed with PBS and the cell-suspension was centrifuged for 5 min at 1000 rpm. Cells were homogenized (Ultrathurrax) in a buffer containing 20 mM Na-HEPES and 10 mM EDTA (pH 7.4) and centrifuged at 20.000 rpm for 15 min. The resulting pellet was resuspended, homogenized and centrifuged (20.000 rpm, 15 min) in a buffer containing 20 mM Na-HEPES and 0.1 mM EDTA (pH 7.4, buffer 2). The resulting pellet was resuspended in buffer 2 and protein concentration was measured (BCA protein Assay, Pierce). The homogenate was kept cold during the whole procedure. The membranes were kept at −80° C. until use. Assay was performed in a 384 well Optiplate (PerkinElmer) in a total volume of 40 ul. Membranes were mixed with SPA beads.

Compared with B1, B2 is lower in “Ratio hCT/hAmylin binding” value: 1 for the first, 0.5 for the second.

First: B3
Second: B4
The “Ratio hCT/hAmylin binding” value of the first is lower: 2.3 for the first, 9.2 for the second.

In the case of B5, the “Ratio hCT/hAmylin binding” value is reported as 16.

These binders were tested against T1, human calcitonin receptor (assay: SPA competition binding, membranes with human calcitonin receptor, displacement of 125I-calcitonin (Assay VII)).
Method: Membranes were prepared in the following way; the cells were rinsed with PBS and incubated with Versene for approximately 5 min before harvesting. The cells were flushed with PBS and the cell-suspension was centrifuged for 5 min at 1000 rpm. Cells were homogenized (Ultrathurrax) in a buffer containing 20 mM Na-HEPES and 10 mM EDTA (pH 7.4) and centrifuged at 20.000 rpm for 15 min. The resulting pellet was resuspended, homogenized and centrifuged (20.000 rpm, 15 min) in a buffer containing 20 mM Na-HEPES and 0.1 mM EDTA (pH 7.4, buffer 2). The resulting pellet was resuspended in buffer 2 and protein concentration was measured (BCA protein Assay, Pierce). The homogenate was kept cold during the whole procedure. The membranes were kept at −80° C. until use. Assay was performed in a 384 well Optiplate (PerkinElmer) in a total volume of 40 ul. Membranes were mixed with SPA beads. Final concentration of membranes 35 ng/μL final and Final concentration of SPA beads was 0.05 mg/well. Test-compounds were dissolved in DMSO and further diluted in assay buffer (50 mM Hepes, pH 7.4, 1 mM CaCl2, 5 mM MgCl₂, 0.1% OA and 0.02% Tween20). […] The final mixture was incubated for 120 min with shaking at 400 rpm at 25° C. prior to centrifugation (1500 rpm, 10 min). Samples were analyzed on TopCounter™ (Packard). The […] was calculated using (one site binding competition analysis) GraphPad Prism5 as a measure of receptor affinity.

First: B1
Second: B2
The IC50 of the first is 2.7-fold higher: 0.101 nM for the first, 0.038 nM for the second. The second is the more potent here.

Compared with B3, B4 is 2.3-fold higher in IC50: 2.18 nM for the first, 5.09 nM for the second.

B5 showed an IC50 of 3.26 nM.
